Source: patent US20250084155A1

How the values were obtained:
[1] = biological target: HSP70 (human HSP70; the antigen of the binning, humanization and variant binding assays) (human) (UniProt P0DMV8); assay: Octet epitope binning, sandwich format; cell row C92F3-5 / column m77A; the sheet does not say whether rows or columns are the first antibody
[2] = biological target: HSP70 (human HSP70; the antigen of the binning, humanization and variant binding assays) (human) (UniProt P0DMV8); assay: Octet epitope binning, sandwich format; cell row C92F3-5 / column N15F2-5; the sheet does not say whether rows or columns are the first antibody
[3] = biological target: HSP70 (human HSP70; the antigen of the binning, humanization and variant binding assays) (human) (UniProt P0DMV8); assay: Octet epitope binning, sandwich format (first antibody on the sensor, then HSP70, then second antibody); cell row C92F3-5 / column C92F3-5; the sheet does not say whether rows or columns are the first antibody
[4] = biological target: HSP70 (human HSP70; the antigen of the binning, humanization and variant binding assays) (human) (UniProt P0DMV8); assay: Octet epitope binning, sandwich format; cell row N15F2-5 / column m77A; the sheet does not say whether rows or columns are the first antibody
[5] = biological target: HSP70 (human HSP70; the antigen of the binning, humanization and variant binding assays) (human) (UniProt P0DMV8); assay: Octet epitope binning, sandwich format; cell row N15F2-5 / column C92F3-5; the sheet does not say whether rows or columns are the first antibody
[6] = biological target: HSP70 (human HSP70; the antigen of the binning, humanization and variant binding assays) (human) (UniProt P0DMV8); assay: Octet epitope binning, sandwich format; cell row N15F2-5 / column N15F2-5; the sheet does not say whether rows or columns are the first antibody

Chain of HSP70 (human HSP70; the antigen of the binning, humanization and variant binding assays) (human) (P0DMV8 whole entry, change not shown): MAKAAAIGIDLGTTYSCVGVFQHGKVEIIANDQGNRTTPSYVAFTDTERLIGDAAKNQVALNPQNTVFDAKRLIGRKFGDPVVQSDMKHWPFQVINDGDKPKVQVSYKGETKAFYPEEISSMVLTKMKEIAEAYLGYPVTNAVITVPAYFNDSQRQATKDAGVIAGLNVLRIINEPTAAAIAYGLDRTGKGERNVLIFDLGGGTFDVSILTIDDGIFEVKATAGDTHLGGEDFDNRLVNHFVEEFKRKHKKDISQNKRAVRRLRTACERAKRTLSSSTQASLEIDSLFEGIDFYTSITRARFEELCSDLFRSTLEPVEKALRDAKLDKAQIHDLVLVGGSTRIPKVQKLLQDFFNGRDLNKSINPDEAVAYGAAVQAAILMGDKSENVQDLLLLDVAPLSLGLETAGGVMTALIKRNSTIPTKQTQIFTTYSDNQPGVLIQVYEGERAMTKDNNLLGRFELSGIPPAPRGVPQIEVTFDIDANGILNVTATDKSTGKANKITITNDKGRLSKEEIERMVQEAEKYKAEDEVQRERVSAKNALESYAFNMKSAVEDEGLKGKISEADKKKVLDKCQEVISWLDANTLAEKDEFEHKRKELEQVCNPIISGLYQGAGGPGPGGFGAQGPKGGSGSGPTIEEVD

Row | Substance | maximal binding in the presence of the potentially competing antibody (given as a fraction; legend: percent) [1] | maximal binding in the presence of the potentially competing antibody (given as a fraction; legend: percent) [2] | maximal binding in the presence of the potentially competing antibody (given as a fraction; legend: percent) [3] | maximal binding in the presence of the potentially competing antibody (given as a fraction; legend: percent) [4] | maximal binding in the presence of the potentially competing antibody (given as a fraction; legend: percent) [5] | maximal binding in the presence of the potentially competing antibody (given as a fraction; legend: percent) [6]
1 | C92F3-5 (Fisher Scientific) anti-HSP70 antibody | 0.781 | 0.489 | 0 |  |  | 
2 | N15F2-5 (Enzo Life Sciences) anti-HSP70 antibody |  |  |  | 0.761 | 0.492 | 0
